This note sets out measurements from PMC13602928.

The target in assay [1] is stripped Anabaena flos-aquae (Ana) gas vesicles (GV shell, native GvpC removed) (Anabaena flos-aquae) (UniProt P10397).
For assay [2] the target is unchanged. The source holds these as a separate data set.

Chain of UniProt P10397 (P10397 whole entry): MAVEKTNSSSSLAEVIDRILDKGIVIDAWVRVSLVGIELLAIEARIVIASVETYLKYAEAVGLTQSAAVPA

With phosphorylated UReKA1 GvpC (pThr60), the time course of the nonlinear ultrasound signal of UReKA1 GVs after PKA addition; time to maximal contrast (signal first detectable after 2-3 h) in assay [1] was found to be 8 h. In assay [2], this substance returned a midpoint collapse pressure of UReKA1 GVs (pressurized absorbance spectroscopy), after PKA phosphorylation of 227 kPa and a nonlinear (xAM) ultrasound signal of purified UReKA1 GVs at 350 kPa, with PKA against without PKA of 4.5 fold.

In assay [1], phosphorylated UReKA2 GvpC (pThr81) came in with a time course of the nonlinear ultrasound signal of UReKA2 GVs after PKA addition; time to maximal contrast (signal first detectable after 2-3 h) of 12 h. Besides, in assay [2], the midpoint collapse pressure of UReKA2 GVs (pressurized absorbance spectroscopy), after PKA phosphorylation was found to be 283 kPa and the nonlinear (xAM) ultrasound signal of purified UReKA2 GVs at 489 kPa, with PKA against without PKA was determined as 12.9 fold.
